± gives the standard deviation of the averaged measurements.

Experimental findings from the supplement of paper PMC10201428 are described below.

B1: library; a variant is named by its letters at N, in order (parent)
chain: ACATTTGTTGATACAACCATAAAATGATAATTACACCCATAAATTGATAATTATCACACCCANNNNNNNNNNNNNNCTCTGATCATAGTCAGACCAACATTGCTACGACCCGTATTCGCACCGACAC

In data set [1] the parent is B1. Description: relative integration efficiency (T-RL orientation) vs wild-type transposon end (log2 (normalized fold change)); transposon end mutated: right end (5 bp flank + 75 bp right end); higher = more efficient transposition. As to conditions: with VchCAST RNA-guided transposition machinery (E. coli BL21(DE3) host, lacZ target). As for the experimental part:
(§1)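 Pooled, barcoded VchCAST (Tn6677) mini-transposon donor libraries; each variable transposon-end sequence sits in a fixed pDonor mini-transposon context (10-bp barcode and cargo not included). Left- or right-end libraries were co-transformed with pEffector (TniQ-Cascade, TnsABC, lacZ crRNA, T7, 0.1 mM IPTG) into E. coli BL21(DE3) and grown 18 h at 37 C. T-LR and T-RL junction amplicons were sequenced; output/input barcode fold change was normalised to the mean of four wild-type barcodes and log2-transformed. Two biological replicates; zero-count/undetected variants carry floor values (-10 / -15), censored here. Barcode uncoupling by PCR recombination adds noise.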

In data set [2] the parent is B1. Put plainly: relative integration efficiency (T-LR orientation) vs wild-type transposon end (log2 (normalized fold change)); transposon end mutated: right end (5 bp flank + 75 bp right end); higher = more efficient transposition. Conditions: with VchCAST RNA-guided transposition machinery (E. coli BL21(DE3) host, lacZ target). The method, then:
as §1

Regarding TAAATTGATATGTC, the “relative integration efficiency (log2)” value in data set [1] was -0.17 ± 0.058; in data set [2], 0.485 ± 0.25.

Consider TAAATTGATATTGC A22T, for which the “relative integration efficiency (log2)” value in data set [1] is -0.215 ± 0.042; in data set [2], -0.148 ± 0.0031.

Consider TAAATTGATATTGC A22C, for which the entries for the “relative integration efficiency (log2)” value in data set [1] and in data set [2] were -0.874 ± 0.074 and -1.72 ± 0.82, respectively.

In the case of TAAATTGATATTGC A22G, the “relative integration efficiency (log2)” value in data set [1] was -0.771 ± 0.018; in data set [2] it was -1.09 ± 0.47.

TAAATTGATATTGC A21G: the “relative integration efficiency (log2)” value in data set [1] is -0.564 ± 0.14; in data set [2] it was -1.31 ± 0.14.

With TAAATTGATATTGC A21T, the results for the “relative integration efficiency (log2)” value in data set [1] and in data set [2] were 0.0476 ± 0.12 and -0.217 ± 0.052, respectively.

Turning to TAAATTGATATTGC A21C, the “relative integration efficiency (log2)” value was -0.283 ± 0.04 in data set [1] and -0.846 ± 0.23 in data set [2].

For TAAATTGATATTGC C61A, the “relative integration efficiency (log2)” value in data set [1] is -0.241 ± 0.071; in data set [2], 1.04 ± 0.15.

As for TAAATTGATATTGC C61G, the “relative integration efficiency (log2)” value turned out to be 0.142 ± 0.018 in data set [1] and 0.81 ± 0.3 in data set [2].

Take TAAATTGATATTGC C61T: the “relative integration efficiency (log2)” value was -0.0918 ± 0.017 in data set [1] and 0.755 ± 0.17 in data set [2].

For the variant TAAATTGATATTGC T5G, the “relative integration efficiency (log2)” value was -0.23 ± 0.018 in data set [1] and -0.319 ± 0.36 in data set [2].

Regarding TAAATTGATATTGC T5A, the “relative integration efficiency (log2)” value in data set [1] amounted to 0.0941 ± 0.11; in data set [2], 0.163 ± 0.31.

As to TAAATTGATATTGC T5C, the “relative integration efficiency (log2)” value in data set [1] is -0.234 ± 0.068; in data set [2], -0.488 ± 0.12.

In the case of GAAATTGATATTGC, the “relative integration efficiency (log2)” value in data set [1] is -0.446 ± 0.11; in data set [2], 2.2 ± 0.046.

For the variant TAAATTGATATAGC, the figures for the “relative integration efficiency (log2)” value in data set [1] and in data set [2] were -0.0924 ± 0.038 and 0.0501 ± 0.056, respectively.

Turning to TAAATGTATATTGC, the “relative integration efficiency (log2)” value is -0.000422 ± 0.028 in data set [1] and 2.416 ± 0.0088 in data set [2].

In the case of TAAATTGATATTCC, the figures for the “relative integration efficiency (log2)” value in data set [1] and in data set [2] were -0.154 ± 0.11 and -0.146 ± 0.21, respectively.

For the variant TAAATTGATATTCG, the “relative integration efficiency (log2)” value in data set [1] is -0.0179 ± 0.025; in data set [2], -0.258 ± 0.12.

Take TAAATTGATATTGC T4A: the “relative integration efficiency (log2)” value was -0.153 ± 0.014 in data set [1] and -0.113 ± 0.32 in data set [2].

On to TAAATTGATATTGC T4G, for which the “relative integration efficiency (log2)” value in data set [1] is -0.1742 ± 0.00091; in data set [2], 0.405 ± 0.34.

For TAAATTGATATTGC T4C, the “relative integration efficiency (log2)” value is -0.0535 ± 0.0038 in data set [1] and -0.0603 ± 0.29 in data set [2].

On to TAAAGGTCTATTGC, for which the figures for the “relative integration efficiency (log2)” value in data set [1] and in data set [2] were -0.635 ± 0.042 and 2.17 ± 0.33, respectively.

Take TAAAAAGATATTGC: the “relative integration efficiency (log2)” value in data set [1] was -0.0646 ± 0.032; in data set [2] it was 1.04 ± 0.075.

Turning to TAAATTGATATTGC A50C, the “relative integration efficiency (log2)” value in data set [1] is -0.321 ± 0.012; in data set [2], -0.213 ± 0.17.

In the case of TAAATTGATATTGC A50G, the “relative integration efficiency (log2)” value in data set [1] is -0.0471 ± 0.15; in data set [2] it was 0.0313 ± 0.15.

TAAATTGATATTGC A50T: the entries for the “relative integration efficiency (log2)” value in data set [1] and in data set [2] were -0.455 ± 0.22 and -0.0702 ± 0.025, respectively.

With TAAATTGATATTAC, the “relative integration efficiency (log2)” value in data set [1] is -0.14 ± 0.1; in data set [2], 0.0276 ± 0.11.

Regarding TAAATTGATATTGC C77G, the results for the “relative integration efficiency (log2)” value in data set [1] and in data set [2] were 0.0121 ± 0.017 and -0.217 ± 0.018, respectively.

Take TAAATTGATATTGC C77A: the “relative integration efficiency (log2)” value in data set [1] is -0.111 ± 0.093; in data set [2], -0.0608 ± 0.27.

As for TAAATTGATATTGC C77T, the “relative integration efficiency (log2)” value is -0.00923 ± 0.0046 in data set [1] and -0.351 ± 0.044 in data set [2].

Turning to TAAATTGATATGTA C77A, the entries for the “relative integration efficiency (log2)” value in data set [1] and in data set [2] were -0.158 ± 0.089 and 0.332 ± 0.19, respectively.

On to TAAATTGATATTGC A19C, for which the “relative integration efficiency (log2)” value in data set [1] was -1.18 ± 0.12; in data set [2], -1.16 ± 0.11.

Consider TAAATTGATATTGC A19G, for which the “relative integration efficiency (log2)” value in data set [1] is -0.155 ± 0.081; in data set [2] it was -0.378 ± 0.051.

For TAAATTGATATTGC A19T, the “relative integration efficiency (log2)” value in data set [1] is -0.574 ± 0.03; in data set [2], -0.267 ± 0.084.

With TAAATTGATATTGC C79A, the “relative integration efficiency (log2)” value was -0.158 ± 0.087 in data set [1] and -0.334 ± 0.18 in data set [2].

In the case of TAAATTGATATTGC C79T, the figures for the “relative integration efficiency (log2)” value in data set [1] and in data set [2] were 0.00455 ± 0.031 and -0.191 ± 0.27, respectively.

Take TAAATTGATATTGC C79G: the “relative integration efficiency (log2)” value was -0.0645 ± 0.0099 in data set [1] and -0.196 ± 0.19 in data set [2].

In the case of TAAATTGATATTGC A16C, the figures for the “relative integration efficiency (log2)” value in data set [1] and in data set [2] were -0.0617 ± 0.0049 and 0.0173 ± 0.062, respectively.

Take TAAATTGATATTGC A16G: the results for the “relative integration efficiency (log2)” value in data set [1] and in data set [2] were -0.119 ± 0.073 and -0.0536 ± 0.39, respectively.

With TAAATTGATATTGC A16T, the “relative integration efficiency (log2)” value was -0.582 ± 0.072 in data set [1] and -0.311 ± 0.2 in data set [2].

In the case of TAAAGTGATATTGC, the “relative integration efficiency (log2)” value was 0.000666 ± 0.021 in data set [1] and 0.119 ± 0.27 in data set [2].

TAAATTGATATTGC C55T: the figures for the “relative integration efficiency (log2)” value in data set [1] and in data set [2] were -0.293 ± 0.17 and 0.175 ± 0.29, respectively.

For the variant TAAATTGATATTGC C55G, the “relative integration efficiency (log2)” value in data set [1] is -0.145 ± 0.21; in data set [2], 0.0542 ± 0.17.

On to TAAATTGATATTGC C55A, for which the “relative integration efficiency (log2)” value in data set [1] is -0.759 ± 0.066; in data set [2] it was 0.402 ± 0.41.

For TAAATTGATATACC, the “relative integration efficiency (log2)” value was -0.223 ± 0.13 in data set [1] and 0.207 ± 0.58 in data set [2].

As to AAAATTGATATTGC A62T, the “relative integration efficiency (log2)” value in data set [1] is -0.47 ± 0.19; in data set [2], 1.67 ± 0.025.

Turning to TAAATGGATATTGC, the “relative integration efficiency (log2)” value is -0.161 ± 0.039 in data set [1] and 1.54 ± 0.17 in data set [2].

As to TAAATTGATATTGC A24C, the “relative integration efficiency (log2)” value is 0.238 ± 0.12 in data set [1] and 0.1 ± 0.21 in data set [2].

With TAAATTGATATTGC A24T, the “relative integration efficiency (log2)” value was -0.125 ± 0.1 in data set [1] and -0.0829 ± 0.28 in data set [2].

As for TAAATTGATATTGC A24G, the “relative integration efficiency (log2)” value in data set [1] was determined as 0.266 ± 0.047; in data set [2], 0.156 ± 0.052.

In the case of TAAACTGATATTGC, the “relative integration efficiency (log2)” value in data set [1] is -0.0927 ± 0.037; in data set [2] it was 0.318 ± 0.14.

Turning to TAAATTGATAGGGC, the “relative integration efficiency (log2)” value in data set [1] is 0.0268 ± 0.029; in data set [2], 1.18 ± 0.057.

For the variant TAAATTGATATTGC T6A, the “relative integration efficiency (log2)” value was -5.81 ± 0.51 in data set [1] and -5.94 ± 1.9 in data set [2].

For the variant TAAAATGATAATTA C59A, the figures for the “relative integration efficiency (log2)” value in data set [1] and in data set [2] were 0.000716 ± 0.075 and -0.0217 ± 0.15, respectively.

As to TAAATTGATATTGC G46C, the figures for the “relative integration efficiency (log2)” value in data set [1] and in data set [2] were -0.936 ± 0.067 and -0.847 ± 0.31, respectively.

TAAATTGATATTGC G46A: the “relative integration efficiency (log2)” value in data set [1] is -0.369 ± 0.054; in data set [2], -0.642 ± 0.19.

Turning to TAAATTGATATTGC G46T, the “relative integration efficiency (log2)” value in data set [1] is -0.423 ± 0.077; in data set [2], -0.734 ± 0.14.
